Experimental data taken from publication PMC13423800, “De novo design of potent CRISPR–Cas13 inhibitors” (Nature Chemical Biology, 2024).

T1: LbuCas13a (Leptotrichia buccalis, UniProt C7NBY4)
T1 sequence: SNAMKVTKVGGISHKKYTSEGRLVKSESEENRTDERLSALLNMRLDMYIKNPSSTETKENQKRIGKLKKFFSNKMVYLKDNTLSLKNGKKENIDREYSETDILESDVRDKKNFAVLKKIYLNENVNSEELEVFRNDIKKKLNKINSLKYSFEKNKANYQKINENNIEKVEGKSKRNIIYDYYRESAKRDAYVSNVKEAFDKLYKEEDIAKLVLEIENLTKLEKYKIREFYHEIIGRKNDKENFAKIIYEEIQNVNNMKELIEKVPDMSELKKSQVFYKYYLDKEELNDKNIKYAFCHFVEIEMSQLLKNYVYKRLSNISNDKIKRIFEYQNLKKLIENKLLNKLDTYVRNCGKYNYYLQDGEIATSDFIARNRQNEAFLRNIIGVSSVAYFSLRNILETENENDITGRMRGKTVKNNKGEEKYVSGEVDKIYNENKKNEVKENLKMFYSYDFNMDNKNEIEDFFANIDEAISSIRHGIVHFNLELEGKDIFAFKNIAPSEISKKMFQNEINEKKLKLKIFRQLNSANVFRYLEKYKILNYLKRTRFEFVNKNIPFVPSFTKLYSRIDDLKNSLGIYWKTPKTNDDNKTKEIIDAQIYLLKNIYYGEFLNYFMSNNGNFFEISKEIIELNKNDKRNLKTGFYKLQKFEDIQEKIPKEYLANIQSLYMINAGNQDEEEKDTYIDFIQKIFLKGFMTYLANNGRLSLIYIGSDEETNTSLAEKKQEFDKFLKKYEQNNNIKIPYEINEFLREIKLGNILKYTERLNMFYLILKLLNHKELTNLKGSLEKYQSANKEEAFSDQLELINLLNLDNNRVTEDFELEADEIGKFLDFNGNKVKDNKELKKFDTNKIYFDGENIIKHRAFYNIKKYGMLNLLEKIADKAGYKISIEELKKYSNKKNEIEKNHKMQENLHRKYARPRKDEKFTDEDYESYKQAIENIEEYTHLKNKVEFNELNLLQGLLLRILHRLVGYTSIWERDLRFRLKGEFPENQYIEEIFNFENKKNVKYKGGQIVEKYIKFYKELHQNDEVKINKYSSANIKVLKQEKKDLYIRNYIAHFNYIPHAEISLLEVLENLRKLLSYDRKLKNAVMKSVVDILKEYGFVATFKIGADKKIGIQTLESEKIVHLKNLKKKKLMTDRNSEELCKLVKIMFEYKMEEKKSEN

T2: Leptotrichia buccalis (Lbu) CRISPR–Cas13a (Leptotrichia buccalis, UniProt C7NBY4 1-1159)
T2 sequence: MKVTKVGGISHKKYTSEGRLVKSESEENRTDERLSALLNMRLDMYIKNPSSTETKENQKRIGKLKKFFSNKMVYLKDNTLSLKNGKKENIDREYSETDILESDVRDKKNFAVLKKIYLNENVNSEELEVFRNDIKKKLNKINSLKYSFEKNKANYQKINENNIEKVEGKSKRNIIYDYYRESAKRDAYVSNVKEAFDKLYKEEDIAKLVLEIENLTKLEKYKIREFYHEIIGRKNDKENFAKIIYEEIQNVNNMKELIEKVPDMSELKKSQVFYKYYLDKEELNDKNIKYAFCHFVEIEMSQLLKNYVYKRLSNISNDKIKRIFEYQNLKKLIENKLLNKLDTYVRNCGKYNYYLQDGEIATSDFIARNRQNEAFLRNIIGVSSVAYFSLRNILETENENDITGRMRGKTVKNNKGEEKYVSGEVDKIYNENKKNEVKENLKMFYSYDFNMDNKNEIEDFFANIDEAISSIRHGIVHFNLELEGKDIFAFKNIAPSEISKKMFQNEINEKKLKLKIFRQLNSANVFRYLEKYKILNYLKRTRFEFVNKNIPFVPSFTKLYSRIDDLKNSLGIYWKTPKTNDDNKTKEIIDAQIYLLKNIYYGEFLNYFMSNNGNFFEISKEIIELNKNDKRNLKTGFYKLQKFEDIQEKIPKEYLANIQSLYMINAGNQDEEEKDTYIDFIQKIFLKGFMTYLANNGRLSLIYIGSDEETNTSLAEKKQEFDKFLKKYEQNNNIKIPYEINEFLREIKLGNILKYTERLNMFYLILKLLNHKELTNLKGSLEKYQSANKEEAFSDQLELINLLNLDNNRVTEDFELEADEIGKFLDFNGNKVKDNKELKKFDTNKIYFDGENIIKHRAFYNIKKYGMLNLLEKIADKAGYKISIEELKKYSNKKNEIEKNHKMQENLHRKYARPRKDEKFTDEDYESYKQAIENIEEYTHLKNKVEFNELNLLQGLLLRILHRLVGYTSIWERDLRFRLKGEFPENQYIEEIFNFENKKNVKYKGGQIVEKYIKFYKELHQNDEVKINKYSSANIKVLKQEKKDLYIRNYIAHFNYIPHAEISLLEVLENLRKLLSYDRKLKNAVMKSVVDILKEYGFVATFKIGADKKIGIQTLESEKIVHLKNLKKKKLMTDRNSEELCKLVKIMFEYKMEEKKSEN


Tests used:
LbuCas13a = target: T1, LbuCas13a; test: fluorescence polarization; no AIcr (control); 40 nM aRNA, RNP titrated; FP: 1x Cas13a cleavage buffer (composition not in the material), RNP twofold dilutions, 40 nM FAM-aRNA, 2 uM AIcrVIA, 2 h at 37 C; conditions: protein: recombinant; tags: 6xHis-MBP, removed with TEV (SNA left at the N-terminus); label: 5'-6-FAM on aRNA; guide:target 24 bp; guide 5' repeat single-stranded/hairpin; target overhangs 5' C and 3' CC
[1] = target: T2, Leptotrichia buccalis (Lbu) …; test: cell-based or functional assay

IC50 of inhibition of the LbuCas13a HEPN nuclease (velocity of reporter RNA cleavage by LbuCas13a–crRNA–aRNA against AIcrVIA concentration) [1] [nM] | Binder | binding result (LbuCas13a)
– | FP crRNA / 5'-FAM aRNA (mixed, first C of the aRNA is deoxyribose (C*)) RNA: UAGACCACCCCAAAAAUGAAGGGGACUAAAACUUUCUUUCUUUCCUUUUUCUGCCG ?: CCGGCAGAAAAAGGAAAGAAAGAAACC | binds
~7 | AIcrVIA3 (designed binder) MAPKKYVVTVTIPVTDADLTVFLVVDIIVYAEKLGGTVTITAVKSENDSYSVTLEDLDKAAEELEKVGGSIVLTVTFDNKEKAEKVAEFAYLKAEEYNLKVDVEVKEEL | –
~7 | AIcrVIA2 (designed binder) MNEKKEKARKEMKEIAEKAIKEIKKDPEKALEIAVKAVEEIGEIANESGDYKSGEENAWKVAEEYAKVTGDDDTAYDLMLAGDMIIDGKDAEEGYEILKEL | –
